From article doi:10.1101/2024.12.16.628271 come the findings set out here.

Bounds are passed on as bounds.

For assay [1], the target named is Corynebacterium glutamicum PafA (proteasome accessory factor A; Pup ligase) (Corynebacterium glutamicum) (UniProt Q8NQE1). Kind of assay: HDX-MS.
Assay [2] has the same target. The assay is described as follows: SEC-MALS. For orientation: In gel filtration, larger molecules generally elute earlier.
Assay [3] has the same target. The assay is described as follows: SEC.

“Corynebacterium glutamicum PafA (proteasome accessory factor A; Pup ligase) (from UniProt Q8NQE1 1-482) (enzyme)” displayed an average k open of PafA dimer dissociation (HDX-MS, EX1) in assay [1] of 0.06 h⁻¹. For the same substance, the stoichiometry N in assay [2] was found to be 2. Also, in assay [3], the Kd is over 1100 µM and the koff was determined as 4.72e-05 s⁻¹.

The stoichiometry N is the number of molecules, sites or subunits per partner or assembly. As usually defined, the Kd is the constant that tells how readily two partners part at equilibrium. Low values mean a tighter complex, high ones a looser complex. Usually koff stands for the rate constant with which the complex falls apart. High values mean a short-lived complex, low ones a long-lived complex.
